Among the data in article PMC9279676, “ERK2 MAP kinase regulates SUFU binding by multisite phosphorylation of GLI1” (Life Science Alliance, 2022) are Kd values, retold here.

Assay [1] addresses T1, full-length GLI1^G122A,H123A, 35S-radiolabeled (human, UniProt P08151-1 1-1106, G122A | H123A, [35S]-methionine label).
T1 construct: human GLI1, full length (1,106 residues); also called G122A, H123A double substitution; source: in vitro transcription/translation, partially purified by ammonium sulfate precipitation
T1 sequence (looked up): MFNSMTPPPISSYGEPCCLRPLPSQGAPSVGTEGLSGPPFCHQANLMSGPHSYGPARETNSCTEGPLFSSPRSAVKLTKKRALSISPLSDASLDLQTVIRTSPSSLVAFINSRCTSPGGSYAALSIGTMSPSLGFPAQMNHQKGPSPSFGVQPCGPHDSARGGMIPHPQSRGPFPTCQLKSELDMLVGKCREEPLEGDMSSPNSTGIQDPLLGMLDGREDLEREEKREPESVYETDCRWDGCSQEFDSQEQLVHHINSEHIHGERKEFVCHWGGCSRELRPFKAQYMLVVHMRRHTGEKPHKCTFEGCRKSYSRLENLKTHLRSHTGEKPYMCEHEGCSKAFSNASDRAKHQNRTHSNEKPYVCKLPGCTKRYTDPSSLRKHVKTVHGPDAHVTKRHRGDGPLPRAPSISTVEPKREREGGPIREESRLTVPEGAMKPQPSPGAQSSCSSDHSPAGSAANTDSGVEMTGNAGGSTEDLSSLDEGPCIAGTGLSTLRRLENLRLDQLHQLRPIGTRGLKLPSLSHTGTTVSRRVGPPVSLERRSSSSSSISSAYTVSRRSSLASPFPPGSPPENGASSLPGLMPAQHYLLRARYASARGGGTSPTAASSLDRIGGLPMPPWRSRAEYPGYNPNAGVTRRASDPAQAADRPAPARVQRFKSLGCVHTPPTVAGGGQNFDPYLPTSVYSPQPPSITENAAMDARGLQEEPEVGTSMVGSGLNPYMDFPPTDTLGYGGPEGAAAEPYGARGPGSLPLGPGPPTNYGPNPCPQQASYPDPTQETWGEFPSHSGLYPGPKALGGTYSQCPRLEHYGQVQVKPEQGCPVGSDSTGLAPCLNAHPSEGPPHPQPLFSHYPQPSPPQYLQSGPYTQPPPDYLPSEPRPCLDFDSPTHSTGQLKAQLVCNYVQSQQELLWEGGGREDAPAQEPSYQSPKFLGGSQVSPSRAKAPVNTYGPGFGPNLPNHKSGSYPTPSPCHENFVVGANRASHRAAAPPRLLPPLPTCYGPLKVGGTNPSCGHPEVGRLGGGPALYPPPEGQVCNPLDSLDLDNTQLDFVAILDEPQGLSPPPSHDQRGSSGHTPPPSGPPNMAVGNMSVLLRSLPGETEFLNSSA
As to the kind of experiment: pull-down; purified GST-SUFU, 1.25-80 nM, captured on glutathione-Sepharose beads; ∼1 pmol 35S-GLI1 (1-232 or full length) in 200 μl; 15 min at 30°C, then 1 h at room temperature; Binding Buffer + 1 mg/ml BSA; bound GLI1 quantified by SDS-PAGE and Phosphorimager; Kd from binding isotherms. Particulars: one partner purified.

The target of assay [2] is T2, full-length GLI1 S102E S116E S130E, 35S-radiolabeled (human, UniProt P08151-1 1-1106, S102E | S116E | S130E, [35S]-methionine label).
T2 construct: human GLI1, full length (1,106 residues); also called FL-GLI1^EEE; GLI1^EEE; source: in vitro transcription/translation, partially purified by ammonium sulfate precipitation
T2 sequence (looked up): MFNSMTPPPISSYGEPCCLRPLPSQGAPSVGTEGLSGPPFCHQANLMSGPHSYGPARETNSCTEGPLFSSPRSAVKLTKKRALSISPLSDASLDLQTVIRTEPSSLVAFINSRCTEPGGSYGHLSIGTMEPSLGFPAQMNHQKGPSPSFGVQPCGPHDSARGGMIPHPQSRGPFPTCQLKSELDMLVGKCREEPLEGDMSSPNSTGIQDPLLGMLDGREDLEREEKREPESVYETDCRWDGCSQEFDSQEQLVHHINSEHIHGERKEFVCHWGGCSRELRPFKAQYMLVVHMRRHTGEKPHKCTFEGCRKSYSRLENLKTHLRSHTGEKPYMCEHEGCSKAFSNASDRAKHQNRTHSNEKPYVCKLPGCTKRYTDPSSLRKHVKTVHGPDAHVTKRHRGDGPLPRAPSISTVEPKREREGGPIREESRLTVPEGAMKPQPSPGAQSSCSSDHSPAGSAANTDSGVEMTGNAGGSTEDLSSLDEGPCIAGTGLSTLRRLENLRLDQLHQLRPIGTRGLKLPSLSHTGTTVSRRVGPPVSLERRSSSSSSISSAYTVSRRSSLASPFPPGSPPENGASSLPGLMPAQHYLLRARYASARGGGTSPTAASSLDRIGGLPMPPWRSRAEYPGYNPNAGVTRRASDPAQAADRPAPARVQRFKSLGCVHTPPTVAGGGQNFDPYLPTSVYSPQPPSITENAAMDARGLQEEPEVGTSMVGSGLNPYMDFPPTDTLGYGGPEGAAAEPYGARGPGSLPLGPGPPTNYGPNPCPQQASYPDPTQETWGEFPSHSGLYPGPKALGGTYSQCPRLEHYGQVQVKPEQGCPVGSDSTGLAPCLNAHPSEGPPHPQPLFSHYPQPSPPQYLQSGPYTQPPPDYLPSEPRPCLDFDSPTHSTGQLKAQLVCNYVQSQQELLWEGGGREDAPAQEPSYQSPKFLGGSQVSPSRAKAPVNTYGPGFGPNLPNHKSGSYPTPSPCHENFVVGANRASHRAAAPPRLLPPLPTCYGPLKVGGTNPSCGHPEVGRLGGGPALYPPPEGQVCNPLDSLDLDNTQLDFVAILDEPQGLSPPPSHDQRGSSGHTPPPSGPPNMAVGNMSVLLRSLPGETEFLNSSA
The description is as above. The settings on record: one partner purified.

B1: GST-SUFU (fusion of GST to full-length human SUFU) (natural protein, UniProt Q9UMX1-1 1-484, looked up)
chain: MAELRPSGAPGPTAPPAPGPTAPPAFASLFPPGLHAIYGECRRLYPDQPNPLQVTAIVKYWLGGPDPLDYVSMYRNVGSPSANIPEHWHYISFGLSDLYGDNRVHEFTGTDGPSGFGFELTFRLKRETGESAPPTWPAELMQGLARYVFQSENTFCSGDHVSWHSPLDNSESRIQHMLLTEDPQMQPVQTPFGVVTFLQIVGVCTEELHSAQQWNGQGILELLRTVPIAGGPWLITDMRRGETIFEIDPHLQERVDKGIETDGSNLSGVSAKCAWDDLSRPPEDDEDSRSICIGTQPRRLSGKDTEQIRETLRRGLEINSKPVLPPINPQRQNGLAHDRAPSRKDSLESDSSTAIIPHELIRTRQLESVHLKFNQESGALIPLCLRGRLLHGRHFTYKSITGDMAITFVSTGVEGAFATEEHPYAAHGPWLQILLTEEFVEKMLEDLEDLTSPEEFKLPKEYSWPEKKLKVSILPDVVFDSPLH
notes: human SUFU, full length (residues 1-484), BamHI-SUFU-SalI cassette in pGEX-LB; pGEX-LB carries a Gly-Gly-Gly-Gly-Gly-Ser-Gly stretch between GST and the fused protein; also called full-length GST-SUFU; source: Escherichia coli, purified (glutathione-Sepharose); not shown: GST, N-terminal, kept
For the molecule B1, the dissociation constant (Kd) (usually the equilibrium constant for the complex coming apart) was found to be 120 ± 35 nM in assay [1] and 42 ± 8 nM in assay [2].
